In data set [1] the target is T1, PeWRKY1 (Populus euphratica, UniProt A0AAJ6U0E7 1-595). Kind of data set: EMSA.
The target in data set [2] is T1, PeWRKY1. Kind of data set: competition.
In data set [3] the target is T1, PeWRKY1. Kind of data set: competition. The source holds these as a separate data set.

B1: PeHA1 promoter W-box probe (dsDNA)
DNA 1: CCCTATCGGGCAAGATTTGACCCGCCCGAGTTGATCCCTC
DNA 2: GAGGGATCAACTCGGGCGGGTCAAATCTTGCCCGATAGGG
As for B1, the binding result in data set [1] is given as “binds”.

B2: PeHA1 promoter W-box unlabeled competitor (dsDNA)
DNA 1: CCCTATCGGGCAAGATTTGACCCGCCCGAGTTGATCCCTC
DNA 2: GAGGGATCAACTCGGGCGGGTCAAATCTTGCCCGATAGGG
Turning to B2, the binding result in data set [2] was “binds”.

B3: W-box mutant probe (TTGACC to TTAGCC) (dsDNA)
DNA 1: CCCTATCGGGCAAGATTTAGCCCGCCCGAGTTGATCCCTC
DNA 2: GAGGGATCAACTCGGGCGGGCTAAATCTTGCCCGATAGGG
As to B3, in data set [3], the binding result is on record as “no binding”.
